# In article PMC12705745:
# T1: recombinant human C-reactive protein (human), P02741
# T1 chain: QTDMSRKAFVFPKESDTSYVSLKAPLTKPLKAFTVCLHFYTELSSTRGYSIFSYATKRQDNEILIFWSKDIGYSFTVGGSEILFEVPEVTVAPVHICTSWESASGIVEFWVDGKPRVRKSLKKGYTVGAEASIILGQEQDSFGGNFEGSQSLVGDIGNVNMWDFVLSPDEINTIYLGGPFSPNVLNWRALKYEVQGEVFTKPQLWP
# B1: recombinant human C-reactive protein, P02741-1 19-224 (natural protein)
# chain: T1 chain
# Target: T1, recombinant human C-reactive protein …
# Assay: cryo-EM structure; hCRP 6 mg/ml incubated with 4.5 mM CPS23F on ice for ~1 h, 0.02% Tween-20; C5 symmetry applied during reconstruction; 2.78 Å
# Conditions: remark: other sources report otherwise
binder,measurement,value
B1,stoichiometry N,5
